Reference: patent US20170224620A1 (Pfizer, published 2017)
Bridges are numbered along the chain shown (N, C = ends). Where no end group is shown, it is not given here. [ ]: non-standard residue; d: D form. Phe(4-NH2) = Nc1ccc(C[C@H](N)C(=O)O)cc1; 3Pal = N[C@@H](Cc1cccnc1)C(=O)O; hCys = N[C@@H](CCS)C(=O)O; F(pg) = not defined here; Pra = C#CC[C@H](N)C(=O)O

B1: P2-53 (peptide)
peptide: DPCTWEVWGREXLQGGGG
modifications: free N-terminus; penicillamine (Pen) at 12, disulfide with Cys3; Par at 17; C-terminal amide
B2: P2-37 (peptide)
peptide: H-DPCTWELWGRECLQGG[Pra]G-NH2
modifications: disulfide 3-12
SMILES: C#CC[C@H](NC(=O)CNC(=O)CNC(=O)[C@H](CCC(N)=O)NC(=O)[C@H](CC(C)C)NC(=O)[C@@H]1CSSC[C@H](NC(=O)[C@@H]2CCCN2C(=O)[C@@H](N)CC(=O)O)C(=O)N[C@@H]([C@@H](C)O)C(=O)N[C@@H](Cc2c[nH]c3ccccc23)C(=O)N[C@@H](CCC(=O)O)C(=O)N[C@@H](CC(C)C)C(=O)N[C@@H](Cc2c[nH]c3ccccc23)C(=O)NCC(=O)N[C@@H](CCCNC(=N)N)C(=O)N[C@@H](CCC(=O)O)C(=O)N1)C(=O)NCC(N)=O
B3: P2-49 (peptide)
peptide: H-DPCTWEVWGRDCLQGG[Pra]G-NH2
modifications: disulfide 3-12
SMILES: C#CC[C@H](NC(=O)CNC(=O)CNC(=O)[C@H](CCC(N)=O)NC(=O)[C@H](CC(C)C)NC(=O)[C@@H]1CSSC[C@H](NC(=O)[C@@H]2CCCN2C(=O)[C@@H](N)CC(=O)O)C(=O)N[C@@H]([C@@H](C)O)C(=O)N[C@@H](Cc2c[nH]c3ccccc23)C(=O)N[C@@H](CCC(=O)O)C(=O)N[C@@H](C(C)C)C(=O)N[C@@H](Cc2c[nH]c3ccccc23)C(=O)NCC(=O)N[C@@H](CCCNC(=N)N)C(=O)N[C@@H](CC(=O)O)C(=O)N1)C(=O)NCC(N)=O
B4: P2-40 (peptide)
peptide: H-DPCTWEVFGRECLQGG[Pra]G-NH2
modifications: disulfide 3-12
SMILES: C#CC[C@H](NC(=O)CNC(=O)CNC(=O)[C@H](CCC(N)=O)NC(=O)[C@H](CC(C)C)NC(=O)[C@@H]1CSSC[C@H](NC(=O)[C@@H]2CCCN2C(=O)[C@@H](N)CC(=O)O)C(=O)N[C@@H]([C@@H](C)O)C(=O)N[C@@H](Cc2c[nH]c3ccccc23)C(=O)N[C@@H](CCC(=O)O)C(=O)N[C@@H](C(C)C)C(=O)N[C@@H](Cc2ccccc2)C(=O)NCC(=O)N[C@@H](CCCNC(=N)N)C(=O)N[C@@H](CCC(=O)O)C(=O)N1)C(=O)NCC(N)=O
B5: P2-39 (peptide)
peptide: H-DPCTWEVAGRECLQGG[Pra]G-NH2
modifications: disulfide 3-12
SMILES: C#CC[C@H](NC(=O)CNC(=O)CNC(=O)[C@H](CCC(N)=O)NC(=O)[C@H](CC(C)C)NC(=O)[C@@H]1CSSC[C@H](NC(=O)[C@@H]2CCCN2C(=O)[C@@H](N)CC(=O)O)C(=O)N[C@@H]([C@@H](C)O)C(=O)N[C@@H](Cc2c[nH]c3ccccc23)C(=O)N[C@@H](CCC(=O)O)C(=O)N[C@@H](C(C)C)C(=O)N[C@@H](C)C(=O)NCC(=O)N[C@@H](CCCNC(=N)N)C(=O)N[C@@H](CCC(=O)O)C(=O)N1)C(=O)NCC(N)=O
B6: P2-38 (peptide)
peptide: H-DPCTWETWGRECLQGG[Pra]G-NH2
modifications: disulfide 3-12
SMILES: C#CC[C@H](NC(=O)CNC(=O)CNC(=O)[C@H](CCC(N)=O)NC(=O)[C@H](CC(C)C)NC(=O)[C@@H]1CSSC[C@H](NC(=O)[C@@H]2CCCN2C(=O)[C@@H](N)CC(=O)O)C(=O)N[C@@H]([C@@H](C)O)C(=O)N[C@@H](Cc2c[nH]c3ccccc23)C(=O)N[C@@H](CCC(=O)O)C(=O)N[C@@H]([C@@H](C)O)C(=O)N[C@@H](Cc2c[nH]c3ccccc23)C(=O)NCC(=O)N[C@@H](CCCNC(=N)N)C(=O)N[C@@H](CCC(=O)O)C(=O)N1)C(=O)NCC(N)=O
B7: P2-8 (peptide)
peptide: DPCTWEVAGRECLQ
modifications: disulfide 3-12; not fully specified (N-terminus, C-terminus); also: C-terminal propargylglycine moiety
notes: also called P2 Ala scan, AA position 8
B8: P2-31 (peptide)
peptide: H-DPCTW[Pra]VWGRECLQ-NH2
modifications: disulfide 3-12
SMILES: C#CC[C@@H]1NC(=O)[C@H](Cc2c[nH]c3ccccc23)NC(=O)[C@H]([C@@H](C)O)NC(=O)[C@@H](NC(=O)[C@@H]2CCCN2C(=O)[C@@H](N)CC(=O)O)CSSC[C@@H](C(=O)N[C@@H](CC(C)C)C(=O)N[C@@H](CCC(N)=O)C(N)=O)NC(=O)[C@H](CCC(=O)O)NC(=O)[C@H](CCCNC(=N)N)NC(=O)CNC(=O)[C@H](Cc2c[nH]c3ccccc23)NC(=O)[C@H](C(C)C)NC1=O
B9: P2-27 (peptide)
peptide: H-DPC[Pra]WEVWGRECLQ-NH2
modifications: disulfide 3-12
SMILES: C#CC[C@@H]1NC(=O)[C@@H](NC(=O)[C@@H]2CCCN2C(=O)[C@@H](N)CC(=O)O)CSSC[C@@H](C(=O)N[C@@H](CC(C)C)C(=O)N[C@@H](CCC(N)=O)C(N)=O)NC(=O)[C@H](CCC(=O)O)NC(=O)[C@H](CCCNC(=N)N)NC(=O)CNC(=O)[C@H](Cc2c[nH]c3ccccc23)NC(=O)[C@H](C(C)C)NC(=O)[C@H](CCC(=O)O)NC(=O)[C@H](Cc2c[nH]c3ccccc23)NC1=O
B10: P2-70 (peptide)
peptide: DPCTFEVWGRECLQ
modifications: disulfide 3-12; not fully specified (N-terminus, C-terminus)
notes: P2 backbone; also called P2 with Phenylalanine at W5
B11: P2-35 (peptide)
peptide: H-DPCTWE[Pra]WGRECLQ-NH2
modifications: disulfide 3-12
SMILES: C#CC[C@@H]1NC(=O)[C@H](CCC(=O)O)NC(=O)[C@H](Cc2c[nH]c3ccccc23)NC(=O)[C@H]([C@@H](C)O)NC(=O)[C@@H](NC(=O)[C@@H]2CCCN2C(=O)[C@@H](N)CC(=O)O)CSSC[C@@H](C(=O)N[C@@H](CC(C)C)C(=O)N[C@@H](CCC(N)=O)C(N)=O)NC(=O)[C@H](CCC(=O)O)NC(=O)[C@H](CCCNC(=N)N)NC(=O)CNC(=O)[C@H](Cc2c[nH]c3ccccc23)NC1=O
B12: P2-74 (peptide)
peptide: DPCT[3Pal]EVWGRECLQ
modifications: disulfide 3-12; not fully specified (N-terminus)
notes: P2 backbone; also called P2 with 3-Pyridyl Alanine at W5
B13: P2-52 (peptide)
peptide: H-DP[hCys]TWEVWGRE[hCys]LQGG[Pra]G-NH2
modifications: disulfide 3-12
SMILES: C#CC[C@H](NC(=O)CNC(=O)CNC(=O)[C@H](CCC(N)=O)NC(=O)[C@H](CC(C)C)NC(=O)[C@@H]1CCSSCC[C@H](NC(=O)[C@@H]2CCCN2C(=O)[C@@H](N)CC(=O)O)C(=O)N[C@@H]([C@@H](C)O)C(=O)N[C@@H](Cc2c[nH]c3ccccc23)C(=O)N[C@@H](CCC(=O)O)C(=O)N[C@@H](C(C)C)C(=O)N[C@@H](Cc2c[nH]c3ccccc23)C(=O)NCC(=O)N[C@@H](CCCNC(=N)N)C(=O)N[C@@H](CCC(=O)O)C(=O)N1)C(=O)NCC(N)=O
B14: P2-86 (peptide)
peptide: DPCT[Phe(4-NH2)]EVWGRECLQ
modifications: disulfide 3-12; not fully specified (N-terminus)
notes: P2 backbone; also called P2 with 4-Amino Phenylalanine at W5
B15: P2-51 (peptide)
peptide: H-DP[hCys]TWEVWGRECLQGG[Pra]G-NH2
modifications: disulfide 3-12
SMILES: C#CC[C@H](NC(=O)CNC(=O)CNC(=O)[C@H](CCC(N)=O)NC(=O)[C@H](CC(C)C)NC(=O)[C@@H]1CSSCC[C@H](NC(=O)[C@@H]2CCCN2C(=O)[C@@H](N)CC(=O)O)C(=O)N[C@@H]([C@@H](C)O)C(=O)N[C@@H](Cc2c[nH]c3ccccc23)C(=O)N[C@@H](CCC(=O)O)C(=O)N[C@@H](C(C)C)C(=O)N[C@@H](Cc2c[nH]c3ccccc23)C(=O)NCC(=O)N[C@@H](CCCNC(=N)N)C(=O)N[C@@H](CCC(=O)O)C(=O)N1)C(=O)NCC(N)=O

Biological target: T1, Fc tagged recombinant human EGFR (rhEGFR-Fc, R&D systems, Cat#344-ER-050) (human, UniProt P00533 25-645)
T1 construct: Bought protein; also called apo-EGFR; not shown: Fc tag
Assay: SPR
Experimental: Surface plasmon resonance (SPR) binding studies were carried out on a Biacore T200 instrument (GE Healthcare). […] The contact time and resulting amount of rhEGFR-Fc capture was varied based on the nature of the analyte, namely whether it was a peptide or nanoparticle.
Peptide binding assays were carried out in 10 mM PBS buffer supplemented with 0.05% surfactant P20 and 5% DMSO by volume, at 25° C. Peptides were injected over the rhEGFR-Fc surface for 60 s, followed by dissociation (buffer injection) for 60 s and regeneration with a 10 s pulse of 3M MgCl₂. A fresh rhEGFR-Fc surface was generated for each concentration of each peptide tested. Peptide binding data was analyzed by fitting to a 1:1 Langmuir kinetic model to obtain the on-rate (kₐ), off-rate (kd) and/or equilibrium binding constant (KD) of the interaction.

Row | Binder | Result (affinity relative to KD of P2) [ratio] | KD/P2 KD [ratio] | binding result | KD Relative to P2 [ratio]
1 | B1 | 2.64 |  |  | 
2 | B2 |  | 10.1 |  | 
3 | H-DPCTWEVWGAECLQGG[Pra]G-NH2 (disulfide 3-12) [P2-45] |  |  | binds | 
4 | B3 |  | 3.39 |  | 
5 | B4 |  |  | binds | 
6 | H-DPCTWEVWGKECLQGG[Pra]G-NH2 (disulfide 3-12) [P2-46] |  | 13.9 |  | 
7 | H-DPCTWEVWG[F(pg)]ECLQGG[Pra]G-NH2 (disulfide 3-12; reading uncertain) [P2-47] |  | 37.1 |  | 
8 | B5 |  |  | no binding | 
9 | B6 |  | 12.3 |  | 
10 | DPATWEVWGRECLQ-{propargyl glycine moiety (p-0168)} (not fully specified (N-terminus), also called P2 Ala scan, AA position 3) [P2-3] |  |  | no binding | 
11 | B7 |  |  | no binding | 
12 | B8 |  | 0.86 |  | 
13 | Ac-DPCTWEVWGREALQ (also: C-terminal propargylglycine moiety, not placed, also called P2 Ala scan, AA position 12) [P2-12] |  |  | no binding | 
14 | B9 |  | 5.4 |  | 
15 | B10 |  |  |  | 9.24
16 | B11 |  | 5.69 |  | 
17 | B12 |  |  |  | 11.8
18 | H-GGDPETWEVWGREKLQGG[Pra]G-NH2 (lactam 5-14) [P2-67] |  |  | binds | 
19 | B13 | 14 |  |  | 
20 | B14 |  |  |  | 9
21 | DPXTWEVWGRECLQGGGG (free N-terminus; Pen at 3, disulfide with Cys12; Par at 17; C-terminal amide) [P2-54] | 4.78 |  |  | 
22 | DPXTWEVWGREXLQGGGG (free N-terminus; Pen at 3 and 12, disulfide; Par at 17; C-terminal amide, also called PenPen analog) [P2-55 (free-ligand series, GG-Par-G tail)] | 1.18 |  |  | 
23 | B15 | 8.88 |  |  | 
